Experiments:
[1] = target: T1, trypsin (Bos taurus, UniProt P00760); assay: Trypsin degradation assay; assay type: in vitro ADME
T1 sequence (P00760 24-246): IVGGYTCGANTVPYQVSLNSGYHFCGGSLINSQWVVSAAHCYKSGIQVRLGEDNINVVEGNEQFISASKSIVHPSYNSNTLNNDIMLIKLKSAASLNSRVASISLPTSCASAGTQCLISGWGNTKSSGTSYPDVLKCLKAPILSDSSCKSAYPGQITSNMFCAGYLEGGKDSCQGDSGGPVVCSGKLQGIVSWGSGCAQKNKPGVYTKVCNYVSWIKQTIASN

[2] = cited from earlier work

Substance	degradation half-life compared to HI + free Prg-SFTI 7 ([1]; enzyme/substrate ratio 1:2) [times]	degradation half-life compared to HI + free Prg-SFTI 7 ([1]; enzyme/substrate ratio 1:4)	pKa of the lysine side-chain amine [2]	pKa of the two N-terminal amines (A1 and B1) [2]
SFTI-Triazolyl-(GQAP)49-GQEP-Cys(B29Nε-Acetyl desB30 Human Insulin) (bicyclic or more) [insulin-SFTI 9]	3	twice as long	–	–
insulin	–	–	~10	~7

Source: paper PMC7424725 (ACS Omega, 2020)
